Assay: label from the status in PepcDB records

| Sequence | protein production |
| --- | --- |
| KVWKPGDECFALYWEDNKFYRAEVEALHSSGMTAVVKFTDYGNYEEVLLSNIKPVQTEAWVRDPN | not failed |
| MRITTLEELLEALDELFDDGSDLTRRGAQDPWERVFSQPGHPLASDLPDACLVDWTRQGLLPSGDGLTALDLGCGLGRNARWLARQGYAVTGLDLSPYAVGQARERTPGPDIRYLEGDVLRDPIPGGPFDVVYDSGCFHHLPPHRRLSYLHTLGQVLRPGGWFGLCTFAWGRMGSAKSDLELLRQGQLEGGVGYTLDDLREMFGGLDFVTGSLLSELEPASEPVFQMDFLQAALFRRPE | failed |
| MIPFPESRLAAQMSFVVEIDKLKTILRQTLLTDSSRRENDAEHSWHIATMAFLLAEYADEAVQIGRVARMLLIHDIVEIDAGDTFIHDEAGNEDKEERERKAAARLFGLLPPDQAAEYSALWQEYEARETADARFADALDRLQPLLHNFETEGGTWKPHGVTRAKVDKLLPRIEAGSKRLGAYARALVDEAVRRGYLAP | not failed |
| MTLATATNEHLANISNTLIYSAMAVYTLAFFAYIAEWLFGSRSKVGRTAAALTHKTAAKAPAVTVKSAGGTAVLDRPQVVTRSAPGARDVPDGPGAHGGDEQGDLYGRIAVSLTVLAFAVEAAGVVARALSVQRAPWGNMYEFNITFSTVAVGVYLALLALKKNIRWLGLPLVTTVLLDLGLAVTVLYTASDQLVPALHSYWLYIHVSTAILCGAVFYVGAVGALLYLFKDSYENKLATGGQPGRFATSVMERLPASASLDKFSYRVNAAVFPLWTFTIIAGAIWAGDAWGRYWGWDPKETWAFITWVAYACYLHARATAGWKGRKAAYIALIAFACWLFNYYGVNIFVSGKHSYAGV | failed |
| MKLIQMSDHIYKLNIQTTVGIPIQINTWFIVNDNDVYIIDTGMDDYAELQITIAKSLGNPKGIFLTHGHLDHINGAKRISEALKIPIFTYKNELPYINGELPYPNKTHTENTGVQYIVKPLETNTNLPFNYYLTPGHAPGHVIYFHNQDKILICGDLFISDAQHLHIPIKKFTYNMTENIKSGQIIDNLCPKLITTSHGDDLYYSDDIYSIYKFKYEELEHHHHHH | failed |
| MANNSPNAAVSVQSPTHQQALACLRELVGHPEAQFHDGQYEAIEALVDAGRRALVVQRTGWGKSAVYFVASLLLRRRGSGPTLIVSPLLALMRDQVAAAARAGVRAVAINSANALEWDTVLAQLAADEVDVLLVSPERLTNPSFRENQLPELIRRTGLLVIDEAHCISDWGHDFRPDYRRIADLIAQLPESVPVLATTATANSRVVHDIEEQLGAGVLTIRGALGRESLRLGVLTLPDSRDRLGWLLTHLADMPGSGIIYTLTVSAAEDTARLLAEAGHNVLSYTGRTDPADRERAEQLLKDNQVKALVATSALGMGFDKPDLGFVIHLGAPSSPVAYYQQVGRAGRGAANADVLLLPGSEDREIWQYFATASMPSAEKAAAVLGVLGEAGSALSTVALEARVDLRRTPLELLLKVLAVDGAVERVGGGWRSTGQPWNYDAERYARIAEARVDEQDSMVIYQDTAGCRMEYITSVLDDETAASCGRCDNCAGRWFPVDVAASAADAAGQTLRRAGIAVEPRLQWPSGMDRLGVAAKGKIKPDESVSEGRILARLTDLGWGGALRELFAAGAPDHAVDPAMLQACVQVLREWSGAEGGTPWSGVGRPAAVVSIPSRSKPQLVESLAQGIAGIGRMPYLGQLQPQYGGPTGARGGNSAYRLAGVWDRLVVGPELAQALAGTGGQPVLLVDDLIDSRWTMTVSARALRQAGVSAVLPLALAQAG | failed |
| MEKVTFVRIADLENHNNDGGFWTVIDGKVYDIKDFQTQSLTENSILAQFAGEDPVVALEAALQFEDTRESMHAFCVGQYLEPDQEGVTIP | not failed |
| MYLEKINSPEDVKKLSIDEMKDLSTEIREVLLKKLSEHGGHIGPNLGIVELTIALHYVFNSPKDKIVYDVSHQSYIHKMLTGRKEAFINSEKYDEVSGYSNPEESEHDFFNIGHTSTSISLACGLAKARDVKDETDNVIAIIGDGSLSGGEAYEGLNNAAETGTNMIIIVNDNDMSIAENHGGLYKNLKELRDTEGKSECNFFKAMGLDYHYVKDGHDLEQLIGVFNKVKDTKQPVVVHIHTVKGKGFKFAEKNKEQWHWGMPFVLETGASKVSMGSAENYGNLTGEYLLDYMKRDPKVVAITSGTPAVFGFWKERRNEAGRQFVDVGIAEEHAVALASGIAANGGNPVYGVYSTFLQRTYDQLSQDLCINNNPAVLLVFAASVYGMNDVTHLGLYDIGMMSNIPNMVYLAPTCKEEYFAMLKWAMIQKDHPVAIRVPAMGVIESGVVDNTDYSKLNKYEVTKAGKDVAVIALGDFYQLGQSVTEKLSQENGINATLINPKYITGIDEELLEGLKKEHKLVITLEDGILDGGFGEKIARYYGASDMKVLNYGIKKELLDRYVPDELMKKNRLTDVQIVEDIMNIIK | failed |
| MALNVAPVRDTKWLTLEVCRQFQRGTCSRSDEECKFAHPPKSCQVENGRVIACFDSLKGRCSRENCKYLHPPTHLKTQLEINGRNNLIQQKTAAAMLAQQMQFMFPGTPLHPVPTFPVGPAIGTNTAISFAPYLAPVTPGVGLVPTEILPTTPVIVPGSPPVTVPGSTATQKLLRTDKLEVCREFQRGNCARGETDCRFAHPADSTMIDTSDNTVTVCMDYIKGRCMREKCKYFHPPAHLQAKIKAAQHQANQAAVAAQAAAAAATVMAFPPGALHPLPKRQALEKSNGTSAVFNPSVLHYQQALTSAQLQQHAAFIPTVPMMHSATSATVSAATTPATSVPFAATATANQIILK | not failed |
| MARIKLDFPDTAFTFETRLPVRITDINGANHLGNDALISMLSEARAQFLVEHGIEEAGHDGVGIIVTDLATMYQGESFYPDMLRFEVGLMDFNKYGGDFVFRVTKADSGQPVALAKYGFVFFNYQSREVTPMPESFRARFA | failed |
| SQSLYQALWNSADVLRSKMDANDYKSYLLGMVFYKYLSDKMLFFVAETMEEETESLDEALAVYRKYYEDEETHEDLLAVITDEMSYAIHPDLTFTALVERVNDGSFQLEDLAQGFRDIEQSDELYENLFEDIDLYSKKLGATPQKQNQTVAAVMKELAVLDVAGHAGDMLGDAYEYLIGQFATDSGKKAGEFYTPQPVAKLMTQIAFLGREDKQGFTLYDATMGSGSLLLNAKRYSRQPQTVVYFGQELNTSTYNLARMNMILHGVPIENQFLHNADTLDEDWPTQEPTNFDGVLMNPPYSAKWSASSGFMDDPRFSPFGKLAPKSKADFAFLLHGYYHLKQDNGVMAIVLPHGVLFRGNAEGTIRKALLEEGAIDTVIGLPANIFFNTSIPTTVIILKKNRTNRDVYFIDASKEFDKGKNQNIMTDAHIEKILNAYKSREDIDKFAHLASFEEIVENDYNLNIPRYVDTFEEEEVEPLTEIVAKINQTNATIESQTASLLDMLGQLHGTTPEADEELKAFVKAFKG | failed |
| MSLDKAIKEVRGNGKLKVAVFSDPDCPFCKRLEHEFEKMTDVTVYSFMMPIAGLHPDAARKAQILWCQPDRAKAWTDWMRKGKFPVGGSICDNPVAETTSLGEQFGFNGTPTLVFPNGRTQSGYSPMPQLEEIIRKNQQEGHHHHHH | not failed |
| MDIRQVTETIAMIEEQNFDIRTITMGISLLDCIDPDINRAAEKIYQKITTKAANLVAVGDEIAAELGIPIVNKRVSVTPISLIGAATDATDYVVLAKALDKAAKEIGVDFIGGFSALVQKGYQKGDEILINSIPRALAETDKVCSSVNIGSTKSGINMTAVADMGRIIKETANLSDMGVAKLVVFANAVEDNPFMAGAFHGVGEADVIINVGVSGPGVVKRALEKVRGQSFDVVAETVKKTAFKITRIGQLVGQMASERLGVEFGIVDLSLAPTPAVGDSVARVLEEMGLETVGTHGTTAALALLNDQVKKGGVMACNQVGGLSGAFIPVSEDEGMIAAVQNGSLNLEKLEAMTAICSVGLDMIAIPEDTPAETIAAMIADEAAIGVINMKTTAVRIIPKGKEGDMIEFGGLLGTAPVMKVNGASSVDFISRGGQIPAPIHSFKN | not failed |
| MRMIGRRRALEHRITLIAVIVILQLAATLFFLVDVTGDLRADGSGVHIAAEAGAAIALLVGVVFGAAQVRWLVLRARQDEAAVAAAKGALADLARLRFSDWKLTAAEADVALFALKGCDVAEIAALRGAAAGTVRAQLARVYAKAGVNSQSALMALFLEELVEAGEG | failed |
| NLSELTPYILCSICKGYLIDATTITECLHTFCKSCIVRHFYYSNRCPKCNIVVHQTQPL | not failed |
| MRQWIAVFALVGSVAAQAGVADQAAAVSALKEGKLAMDVRSQTDYEAGTVLNAVRVDERRLVNQMKQVLSDRNAVFVIFSSTDSKADKAQEKLRAAGYFSVINGGNYEELHNALYDITDDPAE | failed |
